Sequences and labels used below:
B1: LINE1-mini (parent)
chain: GGCAGAGCUCAACACAGCGUGGCAAAGUGGCUGUGGCUAGACUGCC

The data set covers variants of B1. Nature of the data set: self-cleavage, relative activity (ratio to wild type); higher = more cleavage; in vitro, sequencing; the parent is a self-cleaving ribozyme.
As for GGCAGAGAUCAACUCAGCGUGGCAAAGUGGCUGUGGCUAGACUGCC [C8A A14U], the self-cleavage is 0.25.

With GGCAGAUCUCAACACAGCGUGGCAAAGUCGCUGUGGCUAGACUGCC [G7U G29C], the self-cleavage came out at 0.03.

On to GGCAGAUCUCAACACAGCGUGGCAAAGUUGCUGUGGCUAGACUGCC [G7U G29U], for which the self-cleavage was found to be 0.15.

Take GGCAGAUCUCAACACAGCGUGGCAAAGUAGCUGUGGCUAGACUGCC [G7U G29A]: the self-cleavage was found to be 0.06.

With GGCAGAUCUCAACACAGCGUGGCAAAGUGGCUGUGGCUAGCCUGCC [G7U A41C], the self-cleavage was 0.24.

For the variant GGCAGAUCUCAACACAGCGUGGCAAAGUGGCUGUGGCUAGUCUGCC [G7U A41U], the self-cleavage came to 0.21.

Turning to GGCAGAUCUCAACACAGCGUGGCAAAGUGGCUGUGGCUAGGCUGCC [G7U A41G], the self-cleavage amounted to 0.09.

Consider GGCAGAUCUCAACACAGCGUGGCAAAGUGCCUGUGGCUAGACUGCC [G7U G30C], for which the self-cleavage came out at 0.06.

On to GGCAGAUCUCAACACAGCGUGGCAAAGUGUCUGUGGCUAGACUGCC [G7U G30U], for which the self-cleavage was found to be 0.1.

As for GGCAGAUCUCAACACAGCGUGGCAAAGUGACUGUGGCUAGACUGCC [G7U G30A], the self-cleavage is 0.11.

With GGCAGAUCUCAACACAGCGUGGCAAAGUGGCUGUGGCUGGACUGCC [G7U A39G], the self-cleavage worked out at 0.06.

As for GGCAGAUCUCAACACAGCGUGGCAAAGUGGCUGUGGCUCGACUGCC [G7U A39C], the self-cleavage was determined as 0.19.

For the variant GGCAGAUCUCAACACAGCGUGGCAAAGUGGCUGUGGCUUGACUGCC [G7U A39U], the self-cleavage was found to be 0.1.

As to GGCAGAUCUCAACACAGCGUGGCAAUGUGGCUGUGGCUAGACUGCC [G7U A26U], the self-cleavage came out at 0.34.

With GGCAGAUCUCAACACAGCGUGGCAAAGUGGCUGUGGCUAGACAGCC [G7U U43A], the self-cleavage turned out to be 0.11.

On to GGCAGAUCUCAACACAGCGUGGCAAAGUGGCUGUGGCUAGACGGCC [G7U U43G], for which the self-cleavage was 0.32.

For the variant GGCAGAUCUCAACACAGCGUGGCAAAGUGGCUGUGGCUAGACCGCC [G7U U43C], the self-cleavage was 0.18.

With GGCAGAUCUCAACAAAGCGUGGCAAAGUGGCUGUGGCUAGACUGCC [G7U C15A], the self-cleavage was found to be 0.16.

As to GGCAGAUCUCAACAGAGCGUGGCAAAGUGGCUGUGGCUAGACUGCC [G7U C15G], the self-cleavage was 0.09.

In the case of GGCAGAUCUCAACAUAGCGUGGCAAAGUGGCUGUGGCUAGACUGCC [G7U C15U], the self-cleavage came to 0.1.

As for GGCAGAUGUCAACACAGCGUGGCAAAGUGGCUGUGGCUAGACUGCC [G7U C8G], the self-cleavage was found to be 0.32.

For the variant GGCAGAUUUCAACACAGCGUGGCAAAGUGGCUGUGGCUAGACUGCC [G7U C8U], the self-cleavage amounted to 0.34.

With GGCAGAUAUCAACACAGCGUGGCAAAGUGGCUGUGGCUAGACUGCC [G7U C8A], the self-cleavage is 0.3.

Take GGCAGAUCUCAACACAGCGUGGCAAAGUGGCUGUGGCUAGACUUCC [G7U G44U]: the self-cleavage was 0.2.

For the variant GGCAGAUCUCAACACAGCGUGGCAAAGUGGCUGUGGCUAGACUACC [G7U G44A], the self-cleavage was 0.09.

GGCAGAUCUCAACACAGCGUGGCAAAGUGGCUGUGGCUAGACUCCC [G7U G44C]: the self-cleavage came to 0.13.

Take GGCAGAUCUCAACACAGCGUGGCAAAGUGGCUGUGGCUAGAAUGCC [G7U C42A]: the self-cleavage was found to be 0.06.

Consider GGCAGAUCUCAACACAGCGUGGCAAAGUGGCUGUGGCUAGAGUGCC [G7U C42G], for which the self-cleavage is 0.12.

Consider GGCAGAUCUCAACACAGCGUGGCAAAGUGGCUGUGGCUAGAUUGCC [G7U C42U], for which the self-cleavage was determined as 0.12.

On to GGCAGAUCUCAACACAGCGUGGCAAAGUGGUUGUGGCUAGACUGCC [G7U C31U], for which the self-cleavage turned out to be 0.1.

GGCAGAUCUCAACACAGCGUGGCAAAGUGGGUGUGGCUAGACUGCC [G7U C31G]: the self-cleavage is 0.06.

As to GGCAGAUCUCAACACAGCGUGGCAAAGUGGAUGUGGCUAGACUGCC [G7U C31A], the self-cleavage amounted to 0.09.

Take GGCAGAUCUCAACACAGCGUGGCAAAGUGGCUGUGCCUAGACUGCC [G7U G36C]: the self-cleavage was found to be 0.09.

As to GGCAGAUCUCAACACAGCGUGGCAAAGUGGCUGUGUCUAGACUGCC [G7U G36U], the self-cleavage came out at 0.05.

For GGCAGAUCUCAACACAGCGUGGCAAAGUGGCUGUGACUAGACUGCC [G7U G36A], the self-cleavage was 0.11.

As to GGCAGAUCUCAACACAGCGUGGCAAAGUGGCUGAGGCUAGACUGCC [G7U U34A], the self-cleavage came out at 0.08.

In the case of GGCAGAUCUCAACACAGCGUGGCAAAGUGGCUGCGGCUAGACUGCC [G7U U34C], the self-cleavage was 0.09.

In the case of GGCAGAUCUCAACACAGCGUGGCAAAGUGGCUGGGGCUAGACUGCC [G7U U34G], the self-cleavage was determined as 0.05.

As for GGCAGAUCUCAACACAGCGUGGCAAACUGGCUGUGGCUAGACUGCC [G7U G27C], the self-cleavage is 0.1.

On to GGCAGAUCUCAACACAGCGUGGCAAAUUGGCUGUGGCUAGACUGCC [G7U G27U], for which the self-cleavage turned out to be 0.08.

Consider GGCAGAUCUCAACACAGCGUGGCAAAAUGGCUGUGGCUAGACUGCC [G7U G27A], for which the self-cleavage stood at 0.07.

GGCAGAUCUCAACACAGCGUGGCAAAGUGGCUGUGGCUAGACUGAC [G7U C45A]: the self-cleavage stood at 0.16.

For the variant GGCAGAUCUCAACACAGCGUGGCAAAGUGGCUGUGGCUAGACUGUC [G7U C45U], the self-cleavage stood at 0.12.

Turning to GGCAGAUCUCAACACAGCGUGGCAAAGUGGCUGUGGCUAGACUGGC [G7U C45G], the self-cleavage is 0.29.

GGCAGAUCUCAACACAGCGUGGCAAAGUGGCUGUGGCUAGACUGCG [G7U C46G]: the self-cleavage is 0.09.

For the variant GGCAGAUCUCAACACAGCGUGGCAAAGUGGCUGUGGCUAGACUGCA [G7U C46A], the self-cleavage was determined as 0.19.

Take GGCAGAUCUCAACACAGCGUGGCAAAGUGGCUGUGGCUAGACUGCU [G7U C46U]: the self-cleavage came out at 0.03.

For GGCAGAGAUCAACACGGCGUGGCAAAGUGGCUGUGGCUAGACUGCC [C8A A16G], the self-cleavage is 0.22.

Consider GGCAGAGAUCAACACUGCGUGGCAAAGUGGCUGUGGCUAGACUGCC [C8A A16U], for which the self-cleavage came to 0.23.

GGCAGAGAUCAACACCGCGUGGCAAAGUGGCUGUGGCUAGACUGCC [C8A A16C]: the self-cleavage came to 0.25.

Regarding GGCAGAUCUCAACACAGCGUGGCAAAGGGGCUGUGGCUAGACUGCC [G7U U28G], the self-cleavage was determined as 0.07.

Consider GGCAGAUCUCAACACAGCGUGGCAAAGCGGCUGUGGCUAGACUGCC [G7U U28C], for which the self-cleavage is 0.05.

Consider GGCAGAUCUCAACACAGCGUGGCAAAGAGGCUGUGGCUAGACUGCC [G7U U28A], for which the self-cleavage is 0.03.

Take GGCAGAUCUCAACACAGCGAGGCAAAGUGGCUGUGGCUAGACUGCC [G7U U20A]: the self-cleavage is 0.06.

For the variant GGCAGAUCUCAACACAGCGGGGCAAAGUGGCUGUGGCUAGACUGCC [G7U U20G], the self-cleavage came out at 0.08.

In the case of GGCAGAUCUCAACACAGCGCGGCAAAGUGGCUGUGGCUAGACUGCC [G7U U20C], the self-cleavage was 0.07.

The record behind these values is the RNAGym collection of RNA variant scans (doi:10.7554/elife.90254).
